# Data: patent US20260014211
# Tests used:
# [1] = tested on: His-BcpT (recombinant N-terminal His-tagged BcpT without signal sequence)
# [2] = tested on: His-BcpT R199N
# [3] = tested on: His-BcpT R65N:R199N
# [4] = tested on: His-BcpT R65N
substance,measurement,setting,value
"doripain A, full-length recombinant proenzyme (not trypsin treated)","activation of BcpT (Coomassie gel, agar overlay)",[1],DpnA remains full-length and cannot activate BcpT
"doripain A activated with trypsin, DpnA(a)",cleavage of BcpT site mutant (Western immunoblot),[2],"both proteases can cleave BcpT^R199N at the R65 site, which FXa does not"
same,"cleavage and activation of BcpT (Coomassie gel, agar overlay)",[1],The active forms of both proteases cleave and activate BcpT
doripain B (DpnB),cleavage of BcpT site mutant (Western immunoblot),[2],"both proteases can cleave BcpT^R199N at the R65 site, which FXa does not"
same,"cleavage and activation of BcpT (Coomassie gel, agar overlay)",[1],The active forms of both proteases cleave and activate BcpT
Factor Xa,cleavage by FXa (Coomassie gel),[2],are not cleaved by FXa (other than releasing the His-tag)
same,cleavage by FXa (Coomassie gel),[3],are not cleaved by FXa (other than releasing the His-tag)
same,"cleavage of His-tagged BcpT (Coomassie gel, N-terminal sequencing of fragments)",[1],FXa cleaves after R65 and R199 of two Leu-Thr-Arg (LTR) motifs
same,cleavage by FXa (Coomassie gel),[4],is cleaved only at the R199 site
